Assay results published in US20240254246A1 (PROMETHEUS BIOSCIENCES, published 2024).
Where a chain is given by its changes, count along the chain named.

Key:
[1] = target: T1, recombinant human CD30L protein (human, UniProt P32971 63-234); experiment: ELISA, HuCD30L
T1 construct: also called rhCD30L; huCD30L (ELISA)
T1 sequence (looked up): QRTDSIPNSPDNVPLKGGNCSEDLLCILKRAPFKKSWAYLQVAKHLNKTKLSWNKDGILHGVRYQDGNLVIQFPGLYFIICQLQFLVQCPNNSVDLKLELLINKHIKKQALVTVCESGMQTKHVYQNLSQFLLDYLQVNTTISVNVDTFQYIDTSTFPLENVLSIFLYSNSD

[2] = target: T2, human CD30L expressed on cells (human, UniProt P32971 1-234); experiment: flow cytometry, HuCD30L cells
T2 construct: also called huCD30L; B16-huCD30L
T2 sequence: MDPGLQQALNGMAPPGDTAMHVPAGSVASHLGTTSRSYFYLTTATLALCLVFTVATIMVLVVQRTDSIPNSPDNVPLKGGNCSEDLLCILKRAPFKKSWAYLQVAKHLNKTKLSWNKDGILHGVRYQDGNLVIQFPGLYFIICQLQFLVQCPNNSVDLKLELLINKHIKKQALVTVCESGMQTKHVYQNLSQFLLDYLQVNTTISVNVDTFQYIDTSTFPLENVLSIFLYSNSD

[3] = target: T2, human CD30L expressed on cells; experiment: cell-based or functional assay
[4] = target: T3, cynomolgus CD30L expressed on cells (cynomolgus, UniProt A0A7N9CVX7 1-234); experiment: cell-based or functional assay
T3 sequence: T2 sequence with A19T, M20T, G32E, L41F, V75I, K78R, I204V, I227V

CDH13 = target: T4, CDH13 (human, UniProt P55290 139-693); experiment: cell microarray, library and confirmation screens
T4 construct: whole, on cells; also called hit #16
T4 sequence (looked up): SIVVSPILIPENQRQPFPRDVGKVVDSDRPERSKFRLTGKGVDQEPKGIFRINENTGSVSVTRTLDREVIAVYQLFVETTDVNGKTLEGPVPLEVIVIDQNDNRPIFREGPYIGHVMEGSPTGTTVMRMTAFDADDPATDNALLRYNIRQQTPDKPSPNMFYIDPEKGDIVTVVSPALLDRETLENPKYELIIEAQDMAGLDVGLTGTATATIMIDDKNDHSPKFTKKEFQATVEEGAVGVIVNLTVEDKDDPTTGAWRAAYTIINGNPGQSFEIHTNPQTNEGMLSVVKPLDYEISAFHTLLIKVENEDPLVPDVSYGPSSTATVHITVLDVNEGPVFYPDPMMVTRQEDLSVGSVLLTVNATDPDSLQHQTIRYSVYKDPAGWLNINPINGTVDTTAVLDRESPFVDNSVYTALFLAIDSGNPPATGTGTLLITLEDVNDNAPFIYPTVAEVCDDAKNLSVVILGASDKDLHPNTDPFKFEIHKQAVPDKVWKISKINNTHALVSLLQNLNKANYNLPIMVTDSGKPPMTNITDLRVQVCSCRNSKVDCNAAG

[5] = target: T5, human CD30L expressed on B16 cells (human, UniProt P32971 1-234); experiment: cell-based or functional assay
T5 sequence (looked up): T2 sequence

[6] = target: T5, human CD30L expressed on B16 cells; experiment: flow cytometry, binding to B16 cells expressing human CD30L (MFI)
recombinant mouse CD30L = target: T6, recombinant mouse CD30L (mouse, UniProt P32972 68-239); experiment: ELISA on recombinant protein
T6 construct: Purified recombinant protein; also called rmCD30L
T6 sequence (looked up): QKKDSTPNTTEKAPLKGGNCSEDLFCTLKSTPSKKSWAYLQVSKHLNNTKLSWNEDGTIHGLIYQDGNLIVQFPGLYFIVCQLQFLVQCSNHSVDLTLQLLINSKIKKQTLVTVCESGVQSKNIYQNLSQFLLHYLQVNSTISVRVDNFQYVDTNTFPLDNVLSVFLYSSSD

[7] = target: T7, recombinant cynomolgus CD30L (cynomolgus, UniProt A0A7N9CVX7 63-234); experiment: ELISA on recombinant protein
T7 construct: Purified recombinant protein; also called rcyCD30L; cyno CD30L
T7 sequence: T1 sequence (looked up) with V13I, K16R, I142V, I165V

recombinant human CD30L [8] = target: T8, recombinant human CD30L (human, UniProt P32971 63-234); experiment: ELISA on recombinant protein
T8 construct: Purified recombinant protein of ELISA, BLI, Carterra and KinExA; also called rhCD30L; huCD30L
T8 sequence (looked up): T1 sequence (looked up)

recombinant human CD30L [9] = target: T8, recombinant human CD30L; experiment: ELISA, binding to rhCD30L (OD 450 nm)
recombinant human CD30L [10] = target: T8, recombinant human CD30L; experiment: BLI, CD30 association to CD30L held by captured IgG; competitor rhCD30
Description: Briefly, individual anti-human biosensors were loaded with purified IgG (normalized to 10 μg/mL) and a baseline was measured for each biosensor. Biosensors were saturated with biotin and with polyclonal hulgG and a baseline was measured. Loaded biosensors were then allowed to bind CD30L and the association rate was measured for the binding. Biosensors were moved to buffer wells to measure the dissociation rate.

recombinant human CD30L [11] = target: T8, recombinant human CD30L; experiment: recombinant blocking ELISA; competitor CD30
[12] = target: T5, human CD30L expressed on B16 cells; experiment: flow cytometry on B16 cells expressing hCD30L
[13] = target: T9, recombinant cynomolgus CD30L protein (cynomolgus, UniProt A0A7N9CVX7 63-234); experiment: ELISA, 1/500 dil
T9 construct: Recombinant protein used in ELISA; also called cyCD30L
T9 sequence: T1 sequence (looked up) with V13I, K16R, I142V, I165V

[14] = target: T9, recombinant cynomolgus CD30L protein; experiment: ELISA, 1/5000 dil
[15] = target: T10, human CD30L expressed on cells (human, UniProt P32971 1-234); experiment: flow cytometry, PMA/ionomycin-stimulated primary lymphocytes, Patient 4 (CD, #01-051)
T10 construct: whole, on cells; also called huCD30L; B16-huCD30L cells
T10 sequence (looked up): T2 sequence
Excerpt: (§1) Peripheral blood mononuclear cells (PBMCs) were isolated from freshly collected whole blood from Ulcerative Colitis (UC) and Crohn's Disease (CD) patients, by conventional density gradient centrifugation. To induce CD30L expression on primary lymphocytes, the isolated cells were stimulated overnight with Phorbol 12-myristate 13-acetate (PMA) and ionomycin. […] After washing to remove unbound antibodies, the cells were fixed in a paraformaldehyde solution and analyzed by flow cytometry to quantify cell surface antibody binding.

[16] = target: T10, human CD30L expressed on cells; experiment: flow cytometry, PMA/ionomycin-stimulated primary lymphocytes, Patient 1 (CD, #04-021)
Excerpt: as §1

[17] = target: T11, recombinant human CD30L protein (human, UniProt P32971 63-234); experiment: ELISA, CD30 competitor, 1/1000 dil
T11 construct: Recombinant protein used in ELISA; also called huCD30L
T11 sequence (looked up): T1 sequence (looked up)

[18] = target: T10, human CD30L expressed on cells; experiment: flow cytometry, PMA/ionomycin-stimulated primary lymphocytes, Patient 2 (UC, #03-041)
Excerpt: as §1

[19] = target: T11, recombinant human CD30L protein; experiment: ELISA, CD30 competitor, 1/100 dil
[20] = target: T11, recombinant human CD30L protein; experiment: ELISA, CD30 competitor, 1/10 dil
[21] = target: T10, human CD30L expressed on cells; experiment: flow cytometry, PMA/ionomycin-stimulated primary lymphocytes, Patient 3 (UC, #02-180)
Excerpt: as §1

[22] = target: T11, recombinant human CD30L protein; experiment: ELISA, CD30 competitor, undil
[23] = target: T9, recombinant cynomolgus CD30L protein; experiment: ELISA, 1/50 dil
[24] = target: T10, human CD30L expressed on cells; experiment: flow cytometry, blocking of huCD30 binding to B16-huCD30L cells
[25] = target: T12, cynomolgus CD30L expressed on HEK293 cells (cynomolgus, UniProt A0A7N9CVX7 1-234); experiment: cell-based or functional assay
T12 sequence: T2 sequence with A19T, M20T, G32E, L41F, V75I, K78R, I204V, I227V

[26] = target: T10, human CD30L expressed on cells; experiment: cell-based or functional assay; remark: listed apart in the source
[27] = target: T10, human CD30L expressed on cells; experiment: flow cytometry, B16-huCD30L cells
Description: Anti-CD30L antibody binding to a CD30L target was determined by flow cytometry, using B16 cells transfected to express human CD30L (compared to non-transfected B16), and using HEK293 cells transfected to express cynomolgus CD30L (compared to non-transfected HEK293). […] Cell surface bound antibodies were detected using a fluorescently labeled anti-human-IgG or anti-mouse IgG, depending on the Fc portion of the antibodies. After incubation with the secondary antibody, the cells were washed, fixed in a paraformaldehyde solution, and analyzed by flow cytometry to detect antibody binding.

B1: anti-CD30L clone 61 (antibody, V domains shown)
VH: QITLKESGPTLVKPTQTLTLTCTFSGFSLSTSGVGVGWIRQPPGKALEWLALIYWNDDKRYSPSLKSRLTITKDTSKNQVVLTMTNMDPVDTATYYCAHRRTTTVTIYYYYMDVWGKGTTVTVSS
VL: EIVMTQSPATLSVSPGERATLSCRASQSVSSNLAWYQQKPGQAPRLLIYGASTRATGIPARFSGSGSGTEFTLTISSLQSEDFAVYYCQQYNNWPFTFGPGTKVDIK
- OD [1]: 1.42 OD
- MFI [2]: 362 MFI

B2: anti-CD30L antibody clone 2 with IgG1 constant region SEQ ID NO: 502 (antibody, V domains shown)
VH: EVQLVESGGGLVQPGRSLRLSCAASGFNFDDYAMHWVRQAPGKGLEWVSGISWRSGNIGYAGSVKGRFTISRDNAKNSLYLQMNSLRPEDSALYYCAKDKGIGFNWNYEGFDYWGQGTLVTVSS
VL: DIQMTQSPSSLSASVGDRVTITCRASQGISNHLAWFQQKPGKAPKSLIYAASSLQSGVPSKFSGSGSGTDFTLTISSLQPEDFATYYCQQYVTYPLTFGGGTKVEIK
notes: copies: 2 + 2
- IL-8 release dual cell assay, fold better IC50 than reference 1 (ref1) anti-CD30L [3]: 2 fold
- IL-8 release dual cell assay, fold better IC50 than reference 1 (ref1) anti-CD30L [4]: 2.6 fold
- binding result (CDH13): no binding (tested: 5 µg/mL)

B3: anti-CD30L antibody clone 80 (antibody, V domains shown)
VH: EVQLVESGGGLVQPGGSLRLSCEVSGFTFSSYDMHWVRQVTGTGLEWVSSIGIGGDTYYPGSVKGRFTISRENAKNSLYLQMNSLRGGDTGVYYCARGEWDLLWYFMDVWGKGTTVTVSS
VL: B2 VL with V15I, N31S, H32W, F36Y, S46L, K61R, Y91A, V92N, T93S, Y94F
notes: purified recombinant IgG (held by anti-human biosensors); mouse strain #1
- IC50 (read off the curve), IL-8 release, dual cell assay (B16-huCD30L cells + K299 cells) [5]: ~2 nM
- EC50 (read off the curve) [6]: ~1 nM
- rmCD30L (+) ELISA (recombinant mouse CD30L): 0.048
- rcyCD30L (+) ELISA [7]: 0.475
- rhCD30L (+) ELISA (recombinant human CD30L [8]): 0.941
- EC50 (read off the curve) (recombinant human CD30L [9]): ~0.2 nM
- rhCD30L:rhCD30 Blocking (recombinant human CD30L [10]): 0.0635
- IC50 (recombinant human CD30L [11]): 2.74 nM
- hCD30L B16 (+) FLOW [12]: 8.3e+06

B4: Clone 2 (antibody, V domains shown)
VH: B2 VH
VL: B2 VL
notes: also called CLONE_2 (parental)
- Elisa Binding (OD) [13]: 3.18 OD
- Elisa Binding (OD) [14]: 1.23 OD
- EC50 [15]: 1.72 nM
- EC50 [16]: 2.4 nM
- % inhibition [17]: 1%
- EC50 [18]: 1.55 nM
- % inhibition [19]: 45%
- % inhibition [20]: 98%
- EC50 [21]: 1.71 nM
- % inhibition [22]: 98%
- Elisa Binding (OD) [23]: 3.76 OD

B5: anti-CD30L Reference 1 antibody (antibody, human IgG1, lambda, V domains shown)
VH: QVQLQESGPGLVKPSETLSLTCTVSGGSISSYIWSWIRQPAGKGLEWIGRIYASGNTNYNPSLKSRVTISVDTSKNQFSLKLSSMTAADTAVYYCARDYRVAGTYYYYYGLDVWGQGTTVTVSS
VL: QSALTQPASVSGSPGQSITISCTGTSSDVGVYDYVSWYQQHPGKAPKLMIYEVSNRPSGVSNRFSGSKSGNTASLTISGLQTEDEADYYCSSYTSRSTWVFGGGTKLTVLG
- EC50 [15]: 2.82 nM
- IC50 [24]: 2.77 nM
- EC50 [16]: 3.63 nM
- EC50 [18]: 3.12 nM
- EC50 [21]: 3.07 nM
- Inhibition of IL-8 release in a dual cell assay (HEK293-cyCD30L cells + K299 cells) IC50 [25]: 0.68 nM
- Inhibition of IL-8 release in a dual cell assay (B16-huCD30L cells + K299 cells) IC50 [26]: 1.74 nM
- EC50 [27]: 1.74 nM

B6: Clone 1 (antibody, V domains shown)
VH: QVQLQESGPGLVKPSETLSLTCTVSGGSISGYYWSWIRQPPVKGLEWIGYIFYSGYTKYNPSLKSRVTISVDTSKNQFSLKLSSVTAADTAVYYCARDRWDFDYWGQGALVTVSS
VL: AIQMTQSPSYLSASVGDRVTIACRASQGIRNNLGWYQQKPGKAPKLLIYAESSLQSGVPSRFSGSGSGTDFTLTISSLQPEDFATYYCLQDFNYPYTFGQGTKLEIK
notes: also called CLONE_1 (parental)
- Elisa Binding (OD) [13]: 2.87 OD
- Elisa Binding (OD) [14]: 1.16 OD
- EC50 [15]: 4.53 nM
- EC50 [16]: 7.45 nM
- % inhibition [17]: 0%
- EC50 [18]: 5.43 nM
- % inhibition [19]: 34%
- % inhibition [20]: 98%
- EC50 [21]: 5.57 nM
- % inhibition [22]: 98%
- Elisa Binding (OD) [23]: 2.83 OD

B7: anti-CD30L clone 60 (antibody, V domains shown)
VH: QVHLVESGGGVVQPGRSLRLSCAASGFAFNIYGMHWVRQAPGKGLEWVAVISYDGSNKVYADSVKGRFSISRDNSKNTLYLQMNSLRAEDTAVYYCAKSGGITMVRGVFDYWGQGTLVTVSS
VL: DIQMTQSPSSLPASVGDRVTITCRASQGIRNDLGWYQQKPGKAPKRLIHAASSLHSGVPSRFSGSGSGTEFTLTISSLQPEDFATYYCLQHNRYPITFGQGTRLEIK
- OD [1]: 0.23 OD
- MFI [2]: 1090 MFI
